Positions count from the first letter of the chain named.
Assays:
[1] = target: T1, CD73-ND-E143A (human, UniProt P21589 27-317); experiment: ELISA; decline multiple of Top against CD73-ND
T1 construct: Alanine mutant of CD73-ND
T1 sequence: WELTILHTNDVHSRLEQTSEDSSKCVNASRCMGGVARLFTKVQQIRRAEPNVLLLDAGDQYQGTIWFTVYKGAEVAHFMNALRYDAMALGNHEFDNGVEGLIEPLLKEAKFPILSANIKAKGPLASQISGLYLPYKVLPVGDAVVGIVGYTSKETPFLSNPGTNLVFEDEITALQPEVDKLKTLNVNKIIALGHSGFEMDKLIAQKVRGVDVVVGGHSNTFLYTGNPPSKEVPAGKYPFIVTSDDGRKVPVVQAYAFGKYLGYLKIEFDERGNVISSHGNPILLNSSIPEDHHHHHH
Description: (§1) The ELISA plates were coated with SA protein diluted to 1.5 μg/mL in coating buffer (50 mM carbonate coating buffer, pH 9.6) and incubated overnight at 4° C. The supernatant was discarded, and the plates were washed three times with PBST. Then, 5% skimmed milk powder prepared with PBS was added for blocking and the plates were incubated for 2 h at 37° C. After washing the plates once with PBST, CD73-biotin protein (prepared by biotinylating CD73-His protein according to the EZ-Link NHS-Biotin Reagent instructions) was diluted to 0.5 μg/mL and added at 100 μL/well for incubation at room temperature for 1 h. The plates were washed three times with PBST, and the prepared murine-derived monoclonal antibodies against human CD73 were serially diluted with 1% BSA buffer prepared with PBST and added to the ELISA plates at 100 μl/well. The plates were incubated at 37° C. for 1 h. After washing the plates three times with PBST, HRP-labeled goat anti-mouse IgG secondary antibody was added and the plates were incubated for 30 min at 37° C. After washing the plates three times with PBST, the residual droplets were patted dry on absorbent paper as much as possible. Then, 100 μl of TMB color developing solution was added to each well, and the plates were incubated in the dark at room temperature for 5 min for color development. Subsequently, 50 μl of 2M H₂SO₄ stop solution was added to each well to terminate the substrate reaction. The OD values were read at 450 nm using a multimode microplate reader to analyze the binding ability of the tested antibodies to the target antigen human CD73-His.
(§2) Referring to the experimental method in Example 3, the affinity of 48A11-HuV33 for various mutant proteins of CD73-ND was determined. The SA protein was diluted to 1 μg/mL for coating the ELISA plates, and the biotinylated CD73 protein (CD73-biotin) was used at a concentration of 0.1 μg/mL.

[2] = target: T2, CD73-ND-his (human, UniProt P21589 27-317); experiment: ELISA; decline multiple of Top against CD73-ND
T2 construct: Biotinylated and captured on streptavidin in the ELISA
T2 sequence: T1 sequence with A143E
Description: as §1, §2

[3] = target: T3, CD73-ND-K182A (human, UniProt P21589 27-317); experiment: ELISA; decline multiple of Top against CD73-ND
T3 construct: Alanine mutant of CD73-ND
T3 sequence: T1 sequence with A143E, K182A
Description: as §1, §2

[4] = target: T4, CD73-ND-N185A (human, UniProt P21589 27-317); experiment: ELISA; decline multiple of Top against CD73-ND
T4 construct: Alanine mutant of CD73-ND
T4 sequence: T1 sequence with A143E, N185A
Description: as §1, §2

[5] = target: T5, human CD73-His protein (human, UniProt P21589 27-549); experiment: ELISA as in Example 3, antigen CD73-his, antibody titrated, absorbance 450 nm
T5 construct: Expressed in HEK-293F with a signal peptide that is not specified; In the ELISAs it was biotinylated with EZ-Link NHS-Biotin (CD73-biotin) and captured on streptavidin; in SPR and the enzyme assay it was used as CD73-His; also called CD73-his antigen; CD73-biotin
T5 sequence: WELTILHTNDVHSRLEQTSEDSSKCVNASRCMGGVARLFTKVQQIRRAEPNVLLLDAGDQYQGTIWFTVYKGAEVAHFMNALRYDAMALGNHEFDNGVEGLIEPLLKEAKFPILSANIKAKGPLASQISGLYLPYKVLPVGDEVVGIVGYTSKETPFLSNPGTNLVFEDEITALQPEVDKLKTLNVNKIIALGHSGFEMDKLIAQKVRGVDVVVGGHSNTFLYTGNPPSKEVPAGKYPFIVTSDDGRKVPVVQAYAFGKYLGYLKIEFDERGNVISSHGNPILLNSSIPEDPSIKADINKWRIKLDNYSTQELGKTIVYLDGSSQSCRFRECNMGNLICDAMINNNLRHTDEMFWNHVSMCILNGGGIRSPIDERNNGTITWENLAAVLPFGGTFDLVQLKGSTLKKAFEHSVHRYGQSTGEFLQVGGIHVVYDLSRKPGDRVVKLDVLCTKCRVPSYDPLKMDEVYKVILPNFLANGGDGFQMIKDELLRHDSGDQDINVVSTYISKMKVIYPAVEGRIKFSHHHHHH

B1: 48A11-HuV33 (antibody, human IgG4, V domains shown)
VH: QVQLVQSGAEVKKPGASVKVSCKASGYTFTSYWMHWVRQAPGQGLEWIGEINPSIGRTNYNEKFKSRVTLTRDTSTSTAYMELSSLRSEDTAVYYCARRVYGTMDYWGQGTLVTVSS
VL: DIQMTQSPSSLSASVGDRVTITCKASQDINSYLSWFQQKPGKSPKLLIYRANIWVDGVPSRFSGSGSGQDYTFTISSLQPEDIATYYCLQYDELYTFGQGTKVEIK
notes: Humanized
[1]
  Ratio(Top): 1.1 fold
[2]
  Ratio(Top): 1 fold
[3]
  Ratio(Top): 1 fold
[4]
  Ratio(Top): 1 fold
[5]
  EC50 (read off the curve): ~40 pM
